According to PMC6358605:

Target: biotinylated AviTag-BiP^19–413 (NBD), G3I8R9
Experiment: BLI
Settings: chain shown with the change; for response: equilibrium signal, read off a plot; for other: K1/2 max: streptavidin biosensors loaded with biotinylated BiP NBD, equilibrium signal vs [MANF] 0-100 µM, parent: 13.9

biotinylated AviTag-BiP^19–413 (NBD), G3I8R9, sequence (G3I8R9 19-413): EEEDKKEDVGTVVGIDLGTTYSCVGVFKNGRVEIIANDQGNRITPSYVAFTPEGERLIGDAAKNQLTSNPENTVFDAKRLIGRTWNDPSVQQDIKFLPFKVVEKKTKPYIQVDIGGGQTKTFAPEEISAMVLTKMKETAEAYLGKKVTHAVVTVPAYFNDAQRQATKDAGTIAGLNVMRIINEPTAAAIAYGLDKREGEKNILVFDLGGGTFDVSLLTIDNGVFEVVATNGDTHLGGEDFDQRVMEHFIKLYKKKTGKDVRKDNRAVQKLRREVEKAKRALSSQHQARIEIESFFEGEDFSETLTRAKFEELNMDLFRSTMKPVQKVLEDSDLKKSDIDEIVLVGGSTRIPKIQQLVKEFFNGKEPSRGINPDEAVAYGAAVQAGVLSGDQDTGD

Row | Binder | response (50 µM MANF, parent: est. 0.68) [nm] | response (100 µM MANF, parent: est. 0.78) [nm] | other: K1/2 max (R2 0.978) [µM] | other: K1/2 max (R2 0.913) [µM]
1 | Full-length mouse MANF (wild-type), Q9CXI5 E153A (protein) LRPGDCEVCISYLGRFYQDLKDRDVTFSPATIEEELIKFCREARGKENRLCYYIGATDDAATKIINEVSKPLAHHIPVEKICEKLKKKDSQICELKYDKQIDLSTVDLKKLRVKELKKILDDWGEMCKGCAAKSDYIRKINELMPKYAPKAASARTDL | 0.17 | 0.24 |  | 
2 | Full-length mouse MANF (wild-type), Q9CXI5 R23A (protein) LAPGDCEVCISYLGRFYQDLKDRDVTFSPATIEEELIKFCREARGKENRLCYYIGATDDAATKIINEVSKPLAHHIPVEKICEKLKKKDSQICELKYDNQIDLSTVDLKKLRVKELKKILDDWGEMCKGCAEKSDYIRKINELMPKYAPKAASARTDL | 0.52 | 0.58 | 15.3 | 
3 | Full-length mouse MANF (wild-type), Q9CXI5 K138A (protein) LRPGDCEVCISYLGRFYQDLKDRDVTFSPATIEEELIKFCREARGKENRLCYYIGATDDAATKIINEVSKPLAHHIPVEKICEKLKKKDSQICELKYDNQIDLSTVDLKKLRVKELAKILDDWGEMCKGCAEKSDYIRKINELMPKYAPKAASARTDL | 0.3 | 0.42 |  | 31
4 | Full-length mouse MANF (wild-type), Q9CXI5 R133E (protein) LRPGDCEVCISYLGRFYQDLKDRDVTFSPATIEEELIKFCREARGKENRLCYYIGATDDAATKIINEVSKPLAHHIPVEKICEKLKKKDSQICELKYDKQIDLSTVDLKKLEVKELKKILDDWGEMCKGCAEKSDYIRKINELMPKYAPKAASARTDL | 0.1 | 0.13 |  | 
